Data reported in patent US10945997B2, “Polymer derivative of macrolide immunosuppressant” (Nippon Kayaku Kabushiki Kaisha, priority 2016, dated 2021).
Where two headings read alike, the source gives them in different places. Marks after values point to notes of the source that are not given here.

Key:
[1] = rats; cited from earlier work
[2] = Blood concentration profile in rats (1)
Experimental: Blood Concentration Profile in Rats (1)
(§1) At 5 minutes, 1 hour, 6 hours, 24 hours, and 72 hours after administration, blood was collected through the jugular vein under isoflurane anesthesia successively in an amount of 0.3 mL each time, and the tacrolimus concentration in the collected blood was measured.

[3] = system: rat collagen-induced arthritis; test: Anti-inflammatory effect for rat collagen-induced arthritis (1); format: in vivo; details: 5 mg/kg, q7 d × 4, i.v., DA rats, average score 0-5, footnote: Score 29 d
Experimental: Anti-Inflammatory Effect for Rat Collagen-Induced Arthritis (1)
0.3 mg of bovine articular cartilage-derived type II collagen (immunological grade; Collagen Research Center, Ltd.) was intradermally administered on the dorsal side of nine-week old female DA rats (Japan SLC, Inc.), and thereby collagen-induced arthritis was induced in the rats. […] As a control, a non-administered group was provided. Determination of arthritis was made by scoring based on visual inspection.
From the time point after the sensitization with bovine articular cartilage-derived type II collagen, the progress of inflammation in the right hind limb and the left hind limb was monitored. It was determined that the onset of collagen-induced arthritis occurred when reddening was recognized in the toes of the right hind limb or the left hind limb. The extent of arthritis was evaluated in six stages according to the following scores from 0 to 5. […]

[4] = rat, in vivo, iv, 5 mg/kg
Experimental: Blood Concentration Profile in Rats (1)
as §1

In the case of C=CC[C@@H]1/C=C(\C)C[C@H](C)C[C@H](OC)[C@H]2O[C@@](O)(C(=O)C(=O)N3CCCC[C@H]3C(=O)O[C@H](/C(C)=C/[C@@H]3CC[C@@H](O)[C@H](OC)C3)[C@H](C)[C@@H](O)CC1=O)[C@H](C)C[C@@H]2OC [Tacrolimus, tacrolimus], the “signs caused by intravenous administration” value [1] is given as “slight respiratory distress, a decrease in locomotor activity, a prone position, stereotyped behavior”, the Tmax ([2]; female SD rats, i.v. once 5 mg/kg, tacrolimus in blood) is given as 5 min and the concentration at 72 h ([2]; female, SD, rat, whole blood, iv, 5 mg/kg) is given as 0.273 ng/mL.
In the case of “Tacrolimus-Bonded Polyethylene Glycol-αβ-Polyaspartic Acid Block Copolymer [Comparative Example 1]”, the “Arthritis score (29 d)” value [3] is reported as 2.6*, the AUCinf. [4] is reported as 1.05 µg·h/mL and the Cmax [4] is reported as 280 ng/mL. The MRTinf. [4] was 11.6 h, the “MRTinf. compared to tacrolimus” value [4] was “prolongation” and the Tmax [4] was 5 min. For the same molecule, the T½ [4] was 9.57 h and the “blood concentration half-life compared to tacrolimus” value [4] was “prolongation”.
